Laboratory results from article PMC9482650, “Quantitative fragmentomics allow affinity mapping of interactomes” (Nature Communications, 2022).

Experiments:
Assay in all cases: holdup assay
Set-up in all cases: key: below the threshold = too weak to quantify, mostly under pKd 3.1 to 4
[1] = biological target: T1, APBA2_2, Q99767
T1 sequence (Q99767 654-744, limits assumed, looked up): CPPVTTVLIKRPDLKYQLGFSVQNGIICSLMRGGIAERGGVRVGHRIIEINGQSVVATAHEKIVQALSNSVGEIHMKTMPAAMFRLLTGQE

[2] = biological target: T2, ARHGAP21, Q5T5U3
T2 sequence (Q5T5U3 45-169, limits assumed, looked up): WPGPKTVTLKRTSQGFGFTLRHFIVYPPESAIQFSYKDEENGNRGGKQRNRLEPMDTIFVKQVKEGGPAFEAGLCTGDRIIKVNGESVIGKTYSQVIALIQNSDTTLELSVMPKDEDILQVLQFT

[3] = biological target: CASK, O14936
[4] = biological target: DLG2_3, Q15700
[5] = biological target: FRMPD2_3, Q68DX3
[6] = biological target: GRID2IP_1, A4D2P6
[7] = biological target: GRIP2_3, Q9C0E4
[8] = biological target: GRIP2_5, Q9C0E4
[9] = biological target: HTRA2, O43464
[10] = biological target: T3, HTRA4, P83105
T3 sequence (P83105 378-476, limits assumed, looked up): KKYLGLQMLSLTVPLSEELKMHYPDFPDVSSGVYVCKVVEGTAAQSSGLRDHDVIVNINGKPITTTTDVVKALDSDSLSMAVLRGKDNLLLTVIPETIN

[11] = biological target: IL16_3, Q14005
[12] = biological target: LNX1_1, Q8TBB1
[13] = biological target: T4, LNX2_2, Q8N448
T4 sequence (Q8N448 334-432, limits assumed, looked up): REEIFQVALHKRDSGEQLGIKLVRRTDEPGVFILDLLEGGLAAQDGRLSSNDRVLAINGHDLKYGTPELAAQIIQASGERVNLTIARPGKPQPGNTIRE

[14] = biological target: T5, LNX2_3, Q8N448
T5 sequence (Q8N448 463-564, limits assumed, looked up): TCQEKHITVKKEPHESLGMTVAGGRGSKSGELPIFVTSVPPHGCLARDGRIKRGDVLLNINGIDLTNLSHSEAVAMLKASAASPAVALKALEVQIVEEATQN

[15] = biological target: T6, LRRC7, Q96NW7
T6 sequence (Q96NW7 1440-1537, limits assumed, looked up): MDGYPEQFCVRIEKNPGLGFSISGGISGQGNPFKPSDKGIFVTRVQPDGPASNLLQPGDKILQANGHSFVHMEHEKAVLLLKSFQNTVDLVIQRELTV

[16] = biological target: MAST1, Q9Y2H9
[17] = biological target: NHERF4_2, Q86UT5
[18] = biological target: T7, PARD3B_1, Q8TEW8
T7 sequence (Q8TEW8 196-299, limits assumed, looked up): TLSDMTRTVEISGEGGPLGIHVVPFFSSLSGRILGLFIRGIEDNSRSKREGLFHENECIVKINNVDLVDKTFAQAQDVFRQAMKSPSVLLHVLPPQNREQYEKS

[19] = biological target: PDLIM1, O00151
[20] = biological target: T8, PTPN13_1, Q12923
T8 sequence (Q12923 1088-1188, limits assumed, looked up): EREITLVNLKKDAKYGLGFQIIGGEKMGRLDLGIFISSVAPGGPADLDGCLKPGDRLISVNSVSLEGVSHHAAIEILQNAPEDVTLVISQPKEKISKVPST

[21] = biological target: T9, RHPN1, Q8TCX5
T9 sequence (Q8TCX5 508-602, limits assumed, looked up): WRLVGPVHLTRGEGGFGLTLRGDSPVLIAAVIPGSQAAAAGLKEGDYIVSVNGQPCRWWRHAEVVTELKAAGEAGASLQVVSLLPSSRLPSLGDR

[22] = biological target: T10, SNTG2, Q9NY99
T10 sequence (Q9NY99 68-166, limits assumed, looked up): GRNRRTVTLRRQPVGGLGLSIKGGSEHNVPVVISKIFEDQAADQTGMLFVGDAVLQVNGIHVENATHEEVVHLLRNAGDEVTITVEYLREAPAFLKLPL

[23] = biological target: SNX27, Q96L92
[24] = biological target: TJP1_3, Q07157
[25] = biological target: T11, TX1BP3, O14907
T11 sequence (O14907 10-122, limits assumed, looked up): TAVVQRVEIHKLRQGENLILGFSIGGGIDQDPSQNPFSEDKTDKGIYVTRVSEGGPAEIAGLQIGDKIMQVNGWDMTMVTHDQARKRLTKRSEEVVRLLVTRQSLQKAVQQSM

[26] = plain residues with an end cap or a label only (N-terminal biotin on a linker: ttds)
[27] = plain residues with an end cap or a label only (N-terminal biotin on a linker: gsgsgs; C-terminal amide)
[28] = plain residues with an end cap or a label only (N-terminal biotin on a linker: ahx)

Sequence of GRID2IP_1, A4D2P6 (A4D2P6 1-87): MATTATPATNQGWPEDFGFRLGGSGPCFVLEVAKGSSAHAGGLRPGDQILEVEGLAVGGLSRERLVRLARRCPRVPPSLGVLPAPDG
Sequence of FRMPD2_3, Q68DX3 (Q68DX3 1073-1166): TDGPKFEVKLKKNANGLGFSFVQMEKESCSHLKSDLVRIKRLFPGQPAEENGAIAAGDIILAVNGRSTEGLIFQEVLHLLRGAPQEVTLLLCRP
Sequence of NHERF4_2, Q86UT5 (Q86UT5 220-308): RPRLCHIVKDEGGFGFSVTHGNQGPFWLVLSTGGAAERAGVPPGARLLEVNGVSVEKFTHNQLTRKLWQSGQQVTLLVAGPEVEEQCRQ
Sequence of TJP1_3, Q07157 (Q07157 416-512): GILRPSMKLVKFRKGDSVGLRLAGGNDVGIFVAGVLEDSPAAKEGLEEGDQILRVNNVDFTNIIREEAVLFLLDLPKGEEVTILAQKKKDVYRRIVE
Sequence of MAST1, Q9Y2H9 (Q9Y2H9 962-1065): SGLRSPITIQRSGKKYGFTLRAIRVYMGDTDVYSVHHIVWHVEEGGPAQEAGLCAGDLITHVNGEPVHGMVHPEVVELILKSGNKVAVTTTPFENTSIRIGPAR
Sequence of CASK, O14936 (O14936 487-570): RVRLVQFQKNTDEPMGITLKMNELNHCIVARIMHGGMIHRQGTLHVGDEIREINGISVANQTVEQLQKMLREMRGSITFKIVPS
Sequence of GRIP2_5, Q9C0E4 (Q9C0E4 544-642): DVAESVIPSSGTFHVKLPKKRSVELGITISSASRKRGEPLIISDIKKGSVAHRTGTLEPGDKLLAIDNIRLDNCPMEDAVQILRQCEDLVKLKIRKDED
Sequence of LNX1_1, Q8TBB1 (Q8TBB1 261-371): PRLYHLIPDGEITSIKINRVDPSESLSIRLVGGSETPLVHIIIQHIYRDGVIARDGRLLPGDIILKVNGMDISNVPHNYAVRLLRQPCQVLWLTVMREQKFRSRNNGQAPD
Sequence of HTRA2, O43464 (O43464 355-458): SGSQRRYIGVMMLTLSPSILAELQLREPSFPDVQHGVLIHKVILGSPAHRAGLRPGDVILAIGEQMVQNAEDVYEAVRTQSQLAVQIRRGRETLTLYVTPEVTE
Sequence of PDLIM1, O00151 (O00151 1-87): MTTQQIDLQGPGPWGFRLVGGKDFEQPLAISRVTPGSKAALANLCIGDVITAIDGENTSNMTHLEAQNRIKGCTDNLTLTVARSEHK
Sequence of GRIP2_3, Q9C0E4 (Q9C0E4 238-339): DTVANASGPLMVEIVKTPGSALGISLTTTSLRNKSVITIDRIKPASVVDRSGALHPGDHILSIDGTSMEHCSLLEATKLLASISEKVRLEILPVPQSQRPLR
Sequence of IL16_3, Q14005 (Q14005 1107-1207): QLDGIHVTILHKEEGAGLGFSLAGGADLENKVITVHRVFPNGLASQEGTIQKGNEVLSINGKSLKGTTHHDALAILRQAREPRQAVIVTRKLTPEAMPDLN

For ERKLSSESQV [LRP4, O75096], which pKd [1, 26] is on record?
The pKd was “below the threshold”.

And the pKd [2, 26]?
The pKd was “below the threshold”.

And the pKd [3, 26]?
Its pKd is “below the threshold”.

What about the pKd [4, 26] of the same binder?
The pKd was 4.11.

What about the pKd [5, 26] of the same binder?
The pKd was “below the threshold”.

What about the pKd [6, 26] of the same binder?
Its pKd is “below the threshold”.

And the pKd [7, 26]?
Its pKd is “below the threshold”.

And the pKd [8, 26]?
Its pKd is “below the threshold”.

What about the pKd [9, 26] of the same binder?
Its pKd is “below the threshold”.

What about the pKd [10, 26] of the same binder?
The pKd was “below the threshold”.

And the pKd [11, 26]?
The pKd was “below the threshold”.

And the pKd [12, 26]?
The pKd was “below the threshold”.

What about the pKd [13, 26] of the same binder?
The pKd was “below the threshold”.

And the pKd [14, 26]?
Its pKd is “below the threshold”.

What about the pKd [15, 26] of the same binder?
Its pKd is “below the threshold”.

What about the pKd [16, 26] of the same binder?
The pKd was “below the threshold”.

What about the pKd [17, 26] of the same binder?
The pKd was “below the threshold”.

And the pKd [18, 26]?
The pKd was “below the threshold”.

And the pKd [19, 26]?
Its pKd is “below the threshold”.

What about the pKd [20, 26] of the same binder?
Its pKd is “below the threshold”.

And the pKd [21, 26]?
The pKd was 3.96.

And the pKd [22, 26]?
The pKd was 4.1.

What about the pKd [23, 26] of the same binder?
Its pKd is 4.75.

What about the pKd [24, 26] of the same binder?
The pKd was “below the threshold”.

And the pKd [25, 26]?
Its pKd is 4.27.

What does the source list for TLSLTDSSVDGIPPYR [AXIN1_int, O15169]?
pKd [1, 27]: below the threshold; pKd [2, 27]: below the threshold; pKd [3, 27]: below the threshold; pKd [4, 27]: 3.67; pKd [5, 27]: below the threshold; pKd [6, 27]: below the threshold; pKd [7, 27]: below the threshold; pKd [8, 27]: below the threshold; pKd [9, 27]: below the threshold; pKd [10, 27]: below the threshold; pKd [11, 27]: below the threshold; pKd [12, 27]: below the threshold; pKd [13, 27]: below the threshold; pKd [14, 27]: below the threshold; pKd [15, 27]: below the threshold; pKd [16, 27]: 3.68; pKd [17, 27]: below the threshold; pKd [18, 27]: below the threshold; pKd [19, 27]: below the threshold; pKd [20, 27]: 3.5; pKd [21, 27]: below the threshold; pKd [22, 27]: below the threshold; pKd [23, 27]: below the threshold; pKd [24, 27]: below the threshold; pKd [25, 27]: 3.78

With HTHSYIETHV [CNKSR2, Q8WXI2] as the binder, how does the pKd [1, 28] read?
Its pKd is “below the threshold”.

What about the pKd [2, 28] of the same binder?
Its pKd is “below the threshold”.

And the pKd [3, 28]?
Its pKd is “below the threshold”.

And the pKd [4, 28]?
Its pKd is 4.54.

And the pKd [5, 28]?
Its pKd is 3.87.

What about the pKd [6, 28] of the same binder?
The pKd was “below the threshold”.

What about the pKd [7, 28] of the same binder?
The pKd was “below the threshold”.

And the pKd [8, 28]?
Its pKd is “below the threshold”.

And the pKd [9, 28]?
The pKd was “below the threshold”.

And the pKd [10, 28]?
The pKd was 3.9.

What about the pKd [11, 28] of the same binder?
The pKd was “below the threshold”.

And the pKd [12, 28]?
The pKd was 3.85.

What about the pKd [13, 28] of the same binder?
Its pKd is 3.99.

What about the pKd [14, 28] of the same binder?
The pKd was “below the threshold”.

And the pKd [15, 28]?
Its pKd is 4.75.

What about the pKd [16, 28] of the same binder?
Its pKd is 4.57.

What about the pKd [17, 28] of the same binder?
Its pKd is “below the threshold”.

And the pKd [18, 28]?
The pKd was “below the threshold”.

And the pKd [19, 28]?
Its pKd is “below the threshold”.

And the pKd [20, 28]?
Its pKd is “below the threshold”.

What about the pKd [21, 28] of the same binder?
The pKd was 5.21.

What about the pKd [22, 28] of the same binder?
The pKd was 4.67.

And the pKd [23, 28]?
The pKd was 5.7.

And the pKd [24, 28]?
Its pKd is “below the threshold”.

What about the pKd [25, 28] of the same binder?
The pKd was 5.47.

With IYVPEAQTRL [DLGAP4, Q9Y2H0] as the binder, how does the pKd [1, 26] read?
Its pKd is “below the threshold”.

And the pKd [2, 26]?
The pKd was “below the threshold”.

And the pKd [3, 26]?
Its pKd is “below the threshold”.

And the pKd [4, 26]?
The pKd was “below the threshold”.

And the pKd [5, 26]?
Its pKd is “below the threshold”.

What about the pKd [6, 26] of the same binder?
The pKd was “below the threshold”.

What about the pKd [7, 26] of the same binder?
The pKd was “below the threshold”.

What about the pKd [8, 26] of the same binder?
Its pKd is “below the threshold”.

And the pKd [9, 26]?
The pKd was “below the threshold”.

And the pKd [10, 26]?
The pKd was “below the threshold”.

And the pKd [11, 26]?
Its pKd is “below the threshold”.

What about the pKd [12, 26] of the same binder?
Its pKd is “below the threshold”.

And the pKd [13, 26]?
Its pKd is “below the threshold”.

And the pKd [14, 26]?
The pKd was “below the threshold”.

And the pKd [15, 26]?
Its pKd is “below the threshold”.

And the pKd [16, 26]?
The pKd was 5.01.

And the pKd [17, 26]?
The pKd was “below the threshold”.

And the pKd [18, 26]?
The pKd was 4.16.

What about the pKd [19, 26] of the same binder?
The pKd was “below the threshold”.

What about the pKd [20, 26] of the same binder?
Its pKd is “below the threshold”.

What about the pKd [21, 26] of the same binder?
Its pKd is 4.42.

And the pKd [22, 26]?
The pKd was 4.67.

And the pKd [23, 26]?
Its pKd is 5.41.

What about the pKd [24, 26] of the same binder?
Its pKd is “below the threshold”.

What about the pKd [25, 26] of the same binder?
The pKd was “below the threshold”.
